This is an account of results in US20070224188A1.

This test concerns the target biotin-labeled soluble FcRn. In words: FcRn ELISA pH 6.0. A general note: ELISA stands for enzyme-linked immunosorbent assay.
anti-CD20 IgG1 A339K (antibody) gave a FcRn pH6.0 (% of wild type) of 83.

Consider anti-CD20 IgG1 S254Q (antibody), for which the FcRn pH6.0 (% of wild type) is 9.

With anti-CD20 IgG1 G237E (antibody), the FcRn pH6.0 (% of wild type) came out at 93.

On to anti-CD20 IgG1 T256L (antibody), for which the FcRn pH6.0 (% of wild type) was determined as 78.

anti-CD20 IgG1 P343F (antibody) displayed a FcRn pH6.0 (% of wild type) of 89.

anti-CD20 IgG1 Q311E (antibody) yielded a FcRn pH6.0 (% of wild type) of 46.

anti-CD20 IgG1 P257V (antibody) returned a FcRn pH6.0 (% of wild type) of 447.

Substance anti-CD20 IgG1 I332T (antibody) had a FcRn pH6.0 (% of wild type) of 100.

In the case of anti-CD20 IgG1 E283T (antibody), the FcRn pH6.0 (% of wild type) was 143.

For the substance anti-CD20 IgG1 S440I (antibody), the FcRn pH6.0 (% of wild type) was determined as 96.

Regarding anti-CD20 IgG1 E293V (antibody), the FcRn pH6.0 (% of wild type) was found to be 127.

Regarding anti-CD20 IgG1 V279D (antibody), the FcRn pH6.0 (% of wild type) was 367.

The substance anti-CD20 IgG1 P245R (antibody) returned a FcRn pH6.0 (% of wild type) of 188.

anti-CD20 IgG1 E430A (antibody): the FcRn pH6.0 (% of wild type) is 179.

anti-CD20 IgG1 E272K (antibody) returned a FcRn pH6.0 (% of wild type) of 320.

Substance anti-CD20 IgG1 E430S (antibody) came in with a FcRn pH6.0 (% of wild type) of 183.

With anti-CD20 IgG1 E430G (antibody), the FcRn pH6.0 (% of wild type) was found to be 131.

In turn, anti-CD20 IgG1 P343G (antibody) showed a FcRn pH6.0 (% of wild type) of 110.

Take anti-CD20 IgG1 376V434H (antibody): the FcRn6.0 (% of wild type) turned out to be 382.

The substance anti-CD20 IgG1 K248F (antibody) displayed a FcRn pH6.0 (% of wild type) of 0.

anti-CD20 IgG1 257I430Q (antibody) came in with a FcRn6.0 (% of wild type) of 304.

anti-CD20 IgG1 E382R (antibody) had a FcRn pH6.0 (% of wild type) of 165.

The substance anti-CD20 IgG1 A339F (antibody) registered a FcRn pH6.0 (% of wild type) of 120.

In turn, anti-CD20 IgG1 G341E (antibody) came in with a FcRn pH6.0 (% of wild type) of 50.

For anti-CD20 IgG1 251F332E376I (antibody), the FcRn6.0 (% of wild type) worked out at 68.

Turning to anti-CD20 IgG1 T307E (antibody), the FcRn pH6.0 (% of wild type) was 492.

anti-CD20 IgG1 P343N (antibody) came in with a FcRn pH6.0 (% of wild type) of 105.

anti-CD20 IgG1 P343Q (antibody) came in with a FcRn pH6.0 (% of wild type) of 442.

anti-CD20 IgG1 S440F (antibody) displayed a FcRn pH6.0 (% of wild type) of 87.

anti-CD20 IgG1 S375R (antibody) came in with a FcRn pH6.0 (% of wild type) of 595.

For the substance anti-CD20 IgG1 S254I (antibody), the FcRn pH6.0 (% of wild type) stood at 25.

In turn, anti-CD20 IgG1 A339Y (antibody) returned a FcRn pH6.0 (% of wild type) of 92.

In turn, anti-CD20 IgG1 H268D (antibody) displayed a FcRn pH6.0 (% of wild type) of 68.

anti-CD20 IgG1 G341T (antibody): the FcRn pH6.0 (% of wild type) turned out to be 68.

The substance anti-CD20 IgG1 P343S (antibody) returned a FcRn pH6.0 (% of wild type) of 101.

Substance anti-CD20 IgG1 D280K (antibody) returned a FcRn pH6.0 (% of wild type) of 120.

In turn, anti-CD20 IgG1 376V430Q (antibody) came in with a FcRn6.0 (% of wild type) of 212.

anti-CD20 IgG1 P343M (antibody) showed a FcRn pH6.0 (% of wild type) of 83.

The substance anti-CD20 IgG1 I332V (antibody) displayed a FcRn pH6.0 (% of wild type) of 115.

In the case of anti-CD20 IgG1 K317T (antibody), the FcRn pH6.0 (% of wild type) turned out to be 49.

In the case of anti-CD20 IgG1 Y436L (antibody), the FcRn pH6.0 (% of wild type) was 172.

Regarding anti-CD20 IgG1 N434Y (antibody), the FcRn pH6.0 (% of wild type) is 1620.

Take anti-CD20 IgG1 257I434H (antibody): the FcRn6.0 (% of wild type) stood at 472.

The substance anti-CD20 IgG1 E430W (antibody) came in with a FcRn pH6.0 (% of wild type) of 11.

anti-CD20 IgG1 Q438K (antibody) had a FcRn pH6.0 (% of wild type) of 169.

The substance anti-CD20 IgG1 P257A (antibody) showed a FcRn pH6.0 (% of wild type) of 319.

anti-CD20 IgG1 T307A (antibody) displayed a FcRn pH6.0 (% of wild type) of 233.

The substance anti-CD20 IgG1 P343K (antibody) yielded a FcRn pH6.0 (% of wild type) of 232.

On to anti-CD20 IgG1 314Y440Y (antibody), for which the FcRn6.0 (% of wild type) was 78.

anti-CD20 IgG1 V379N (antibody) registered a FcRn pH6.0 (% of wild type) of 74.

Substance anti-CD20 IgG1 L314I (antibody) came in with a FcRn pH6.0 (% of wild type) of 86.

For the substance anti-CD20 IgG1 P238V (antibody), the FcRn pH6.0 (% of wild type) is 102.

anti-CD20 IgG1 Y373L (antibody) returned a FcRn pH6.0 (% of wild type) of 66.

As for anti-CD20 IgG1 E318N (antibody), the FcRn pH6.0 (% of wild type) was found to be 216.

With anti-CD20 IgG1 Y373A (antibody), the FcRn pH6.0 (% of wild type) worked out at 33.

Turning to anti-CD20 IgG1 S440H (antibody), the FcRn pH6.0 (% of wild type) is 110.

On to anti-CD20 IgG1 256P430Q (antibody), for which the FcRn6.0 (% of wild type) is 150.

anti-CD20 IgG1 S254F (antibody) showed a FcRn pH6.0 (% of wild type) of 0.

Regarding anti-CD20 IgG1 V379S (antibody), the FcRn pH6.0 (% of wild type) was 86.

With anti-CD20 IgG1 Q311S (antibody), the FcRn pH6.0 (% of wild type) worked out at 97.

As for anti-CD20 IgG1 258D283R (antibody), the FcRn6.0 (% of wild type) is 411.

anti-CD20 IgG1 S267H (antibody) came in with a FcRn pH6.0 (% of wild type) of 86.

anti-CD20 IgG1 S424M (antibody) came in with a FcRn pH6.0 (% of wild type) of 60.

Take anti-CD20 IgG1 V279Y (antibody): the FcRn pH6.0 (% of wild type) was 139.

In turn, anti-CD20 IgG1 T256G (antibody) yielded a FcRn pH6.0 (% of wild type) of 162.

As to anti-CD20 IgG1 E430L (antibody), the FcRn pH6.0 (% of wild type) worked out at 242.

Consider anti-CD20 IgG1 Y373F (antibody), for which the FcRn pH6.0 (% of wild type) came to 110.

anti-CD20 IgG1 D270N (antibody) returned a FcRn pH6.0 (% of wild type) of 94.

anti-CD20 IgG1 D376Y (antibody) yielded a FcRn pH6.0 (% of wild type) of 53.

In the case of anti-CD20 IgG1 S254E (antibody), the FcRn pH6.0 (% of wild type) amounted to 6.

anti-CD20 IgG1 P343T (antibody) yielded a FcRn pH6.0 (% of wild type) of 126.

For the substance anti-CD20 IgG1 I332A (antibody), the FcRn pH6.0 (% of wild type) turned out to be 96.

anti-CD20 IgG1 256P434H (antibody) registered a FcRn6.0 (% of wild type) of 342.

The substance anti-CD20 IgG1 E380D (antibody) registered a FcRn pH6.0 (% of wild type) of 73.

The substance anti-CD20 IgG1 E318V (antibody) gave a FcRn pH6.0 (% of wild type) of 114.

With anti-CD20 IgG1 I332S (antibody), the FcRn pH6.0 (% of wild type) was found to be 263.

The substance anti-CD20 IgG1 I377K (antibody) came in with a FcRn pH6.0 (% of wild type) of 167.

In the case of anti-CD20 IgG1 311I376V (antibody), the FcRn6.0 (% of wild type) was found to be 414.

On to anti-CD20 IgG1 I332E (antibody), for which the FcRn pH6.0 (% of wild type) was 86.

anti-CD20 IgG1 D280A (antibody): the FcRn pH6.0 (% of wild type) stood at 55.

As to anti-CD20 IgG1 Y373N (antibody), the FcRn pH6.0 (% of wild type) stood at 61.

In turn, anti-CD20 IgG1 P343W (antibody) yielded a FcRn pH6.0 (% of wild type) of 56.

For the substance anti-CD20 IgG1 Y436T (antibody), the FcRn pH6.0 (% of wild type) is 115.

On to anti-CD20 IgG1 330R332E (antibody), for which the FcRn6.0 (% of wild type) was 94.

Substance anti-CD20 IgG1 I332Y (antibody) displayed a FcRn pH6.0 (% of wild type) of 93.

With anti-CD20 IgG1 T256W (antibody), the FcRn pH6.0 (% of wild type) worked out at 14.

Take anti-CD20 IgG1 S440N (antibody): the FcRn pH6.0 (% of wild type) stood at 82.

In turn, anti-CD20 IgG1 L251I (antibody) yielded a FcRn pH6.0 (% of wild type) of 7.

With anti-CD20 IgG1 V427N (antibody), the FcRn pH6.0 (% of wild type) is 192.

In turn, anti-CD20 IgG1 I332R (antibody) yielded a FcRn pH6.0 (% of wild type) of 114.

In turn, anti-CD20 IgG1 D376E (antibody) showed a FcRn pH6.0 (% of wild type) of 82.

As for anti-CD20 IgG1 E283F (antibody), the FcRn pH6.0 (% of wild type) was found to be 168.

For the substance anti-CD20 IgG1 E382N (antibody), the FcRn pH6.0 (% of wild type) is 137.

anti-CD20 IgG1 E269N (antibody): the FcRn pH6.0 (% of wild type) came to 92.

Regarding anti-CD20 IgG1 G237R (antibody), the FcRn pH6.0 (% of wild type) came to 56.

As to anti-CD20 IgG1 D376I (antibody), the FcRn pH6.0 (% of wild type) is 144.

Substance anti-CD20 IgG1 L328V (antibody) yielded a FcRn pH6.0 (% of wild type) of 101.

Substance anti-CD20 IgG1 E283N (antibody) yielded a FcRn pH6.0 (% of wild type) of 119.

anti-CD20 IgG1 D265H (antibody) gave a FcRn pH6.0 (% of wild type) of 79.

The substance anti-CD20 IgG1 P238A (antibody) showed a FcRn pH6.0 (% of wild type) of 90.

With anti-CD20 IgG1 T250M (antibody), the FcRn pH6.0 (% of wild type) is 165.

For the substance anti-CD20 IgG1 A330K (antibody), the FcRn pH6.0 (% of wild type) worked out at 108.

For anti-CD20 IgG1 D376R (antibody), the FcRn pH6.0 (% of wild type) is 103.

As to anti-CD20 IgG1 T256S (antibody), the FcRn pH6.0 (% of wild type) turned out to be 169.

In turn, anti-CD20 IgG1 H429M (antibody) gave a FcRn pH6.0 (% of wild type) of 83.

anti-CD20 IgG1 Y373Q (antibody) gave a FcRn pH6.0 (% of wild type) of 55.

With anti-CD20 IgG1 E382V (antibody), the FcRn pH6.0 (% of wild type) came to 173.

As to anti-CD20 IgG1 Y373S (antibody), the FcRn pH6.0 (% of wild type) worked out at 74.

For anti-CD20 IgG1 G341L (antibody), the FcRn pH6.0 (% of wild type) is 54.
